Results from patent US20160200814A1, “IMMUNORECEPTOR MODULATION FOR TREATING CANCER AND VIRAL INFECTIONS” (THE COUNCIL OF THE QUEENSLAND INSTITUTE OF MEDICAL RESEARCH, priority 2013, published 2016).

Biological target: T1, CD155 at the cell surface of B16F10 (Mus musculus, UniProt F6V4I7)
T1 construct: at the cell surface of B16F10 cells; endogenous in cells; host or cells: B16F10 melanoma cells
T1 sequence (F6V4I7 29-408): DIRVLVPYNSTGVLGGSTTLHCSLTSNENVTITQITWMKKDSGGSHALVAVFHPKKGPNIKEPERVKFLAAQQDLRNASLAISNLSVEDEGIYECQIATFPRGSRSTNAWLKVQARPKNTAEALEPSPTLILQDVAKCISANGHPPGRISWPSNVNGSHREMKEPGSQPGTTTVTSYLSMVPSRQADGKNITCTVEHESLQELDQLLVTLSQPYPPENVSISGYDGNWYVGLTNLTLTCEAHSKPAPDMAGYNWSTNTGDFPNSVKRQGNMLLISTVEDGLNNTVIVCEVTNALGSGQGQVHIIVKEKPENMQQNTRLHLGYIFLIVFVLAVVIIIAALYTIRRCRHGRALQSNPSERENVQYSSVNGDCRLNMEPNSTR
Test: Binding of DNAM-1-Fc (AF-647) at the cell surface of B16F10 cells, flow cytometry
Details: FIG. 3c; DNAM-1-Fc AF-647 0.5-20 μg/ml; competitor 50 μg/ml; versus control Ig
Text: FIG. 3: CD96 limits NK cell-dependent tumor immunosurveillance. a, b. CD96 and DNAM-1 have an opposite role in the control of B16F10 metastasis. a. 2×10^5 B16F10 cells were intravenously injected into WT, CD96^−/−, DNAM-1^−/− and DNAM-1^−/− CD96^−/− mice and metastatic burden was quantified in the lungs after 14 days. Representative experiment out of 3. b. Pictures showing the lung of WT and CD96^−/− mice two weeks after the injection of 2×10^5 and 5×10^5 B16F10 cells. Representative experiment out of two. c. […] The binding of DNAM-1-Fc labeled with AF-647 (0.5-20 μg/ml) at the cell surface of B16F10 cells was analyzed in the presence of 50 μg/ml of control Ig, recombinant CD96 or TIGIT-Fc. The FACS histograms and the mean±SD of triplicate wells from one representative experiment out of 3 are shown. d. A 4 hr^51 Cr release assay was performed between B16F10 cells and IL-2-activated NK cells from WT, DNAM-1^−/− and CD96^−/− mice at the indicated effector target ratios. Solid circles represent WT NK cells, open circles represent CD96^−/− NK cells and solid squares represents DNAM-1^−/− NK cells. e-h. CD96 and DNAM-1 have an opposite role in the immunosurveillance of MCA induced fibrosarcoma mediated by NK cells. e-h Groups of 15-30 male, WT, DNAM-1^−/− and CD96^−/− and DNAM-1^−/− CD96^−/− mice were injected with MCA (100 μg/mouse). […]

B1: recombinant CD96: recombinant CD96 protein used at 50 μg/ml as competitor of DNAM-1-Fc binding (protein, UniProt P40200 22-585, looked up)
T-cell surface protein tactile: VWEKTVNTEENVYATLGSDVNLTCQTQTVGFFVQMQWSKVTNKIDLIAVYHPQYGFYCAYGRPCESLVTFTETPENGSKWTLHLRNMSCSVSGRYECMLVLYPEGIQTKIYNLLIQTHVTADEWNSNHTIEIEINQTLEIPCFQNSSSKISSEFTYAWSVENSSTDSWVLLSKGIKEDNGTQETLISQNHLISNSTLLKDRVKLGTDYRLHLSPVQIFDDGRKFSCHIRVGPNKILRSSTTVKVFAKPEIPVIVENNSTDVLVERRFTCLLKNVFPKANITWFIDGSFLHDEKEGIYITNEERKGKDGFLELKSVLTRVHSNKPAQSDNLTIWCMALSPVPGNKVWNISSEKITFLLGSEISSTDPPLSVTESTLDTQPSPASSVSPARYPATSSVTLVDVSALRPNTTPQPSNSSMTTRGFNYPWTSSGTDTKKSVSRIPSETYSSSPSGAGSTLHDNVFTSTARAFSEVPTTANGSTKTNHVHITGIVVNKPKDGMSWPVIVAALLFCCMILFGLGVRKWCQYQKEIMERPPPFKPPPPPIKYTCIQEPNESDLPYHEMETL
competition with DNAM-1-Fc binding to CD155: compete with DNAM-1 for the binding of CD155 at the cell surface of B16F10
